Columns and labels:
[1] = Thioflavin T fluorescence; type: physicochemical; conditions: for Fluorescence (a.u. +/− SD) ThT: marketed biopharmaceutical within expiry limits, five μL tested
Protocol: Fluorescence of ThT-protein/peptide adducts was measured as follows. […] Fluorescence was measured at 485 nm upon excitation at 435 nm. Background signals from buffer, buffer with ThT and protein/peptide solution without ThT were subtracted from corresponding measurements with protein solution incubated with ThT. […] Fluorescence was measured in triplicate on a Hitachi F-4500 fluorescence spectrophotometer (Ltd., Tokyo, Japan).
(§1) Formulated protein therapeutics were obtained from the local hospital pharmacy and were used as supplied by the manufacturers. […] Lyophilized therapeutics were dissolved according to the manufacturers recommendations. […] Other protein therapeutics were only kept at 4° C., and assayed for the presence of cross-β structure conformation at shown time points. Enhancement in fluorescence of ThT and Congo red was measured with all formulated protein therapeutics. For this purpose, proteins were diluted to the indicated concentrations. […] Zinc-insulin was diluted tenfold in the activation assay, GH was diluted to a final concentration of 500 μg ml^−1. Activation of factor XII and prekallikrein by the therapeutics was tested in the chromogenic factor XII assay (see above). […] After coating, plates were blocked with Blocking Reagent (Roche Diagnostics, Almere, The Netherlands).
To prepare structurally altered ovalbumin (OVA) with amyloid cross-β structure conformation, purified OVA (Sigma, A-7641, lot 071k7094) was heated to 85° C. One mg ml^−1 OVA in 67 mM NaPi buffer pH 7.0, 100 mM NaCl, was heated for two cycles in PCR cups in a PTC-200 thermal cycler (MJ Research, Inc., Waltham, Mass., USA). In each cycle, OVA was heated from 30 to 85° C. at a rate of 5° C./min. Native OVA (nOVA) and heat-denatured OVA (dOVA) were tested in the ThT fluorescence assay and in the Plg-activation assay. In the fluorescence assay and in the Plg-activation assay, 25 and 100 μg ml^−1 nOVA and dOVA were tested, respectively. TEM images of nOVA and dOVA were taken to check for the presence of large aggregates. […] MSA (#126674, Calbiochem) was dissolved in 8 M urea, 100 mM Tris-HCl pH 8.2, at 10 mg ml^−1 final concentration. Dithiothreitol (DTT) was added to a final concentration of 10 mM. Air was replaced by N2 and the solution was incubated for 2 h at room temperature. Then, the solution was transferred to ice and iodoacetamide was added from a 1 M stock to a final concentration of 20 mM. […] Alkyl-MSA was dialyzed against H2O before use. […] In the ThT-fluorescence assay 25 μg ml^−1 nMSA and alkyl-MSA were tested, and in the Plg-activation assay 100 μg ml^−1 was tested. The presence of aggregates or fibrils was analyzed using TEM. […]
(§2) Protein therapeutics were obtained from the local hospital pharmacy and analyzed within the expiry limits as stated by the manufacturers.

tPA [2] = target: T1, tPA (Homo sapiens, UniProt P00750); assay: Plasminogen-activation assay (tPA-mediated Plg to Pls, S-2251); type: biochemical; conditions: for tPA activating potential of native and denatured glucagon and Etanercept: FIG. 6E, G
T1 construct: purchased Boehringer-Ingelheim (Actilyse, Alteplase)
T1 sequence (P00750 36-562): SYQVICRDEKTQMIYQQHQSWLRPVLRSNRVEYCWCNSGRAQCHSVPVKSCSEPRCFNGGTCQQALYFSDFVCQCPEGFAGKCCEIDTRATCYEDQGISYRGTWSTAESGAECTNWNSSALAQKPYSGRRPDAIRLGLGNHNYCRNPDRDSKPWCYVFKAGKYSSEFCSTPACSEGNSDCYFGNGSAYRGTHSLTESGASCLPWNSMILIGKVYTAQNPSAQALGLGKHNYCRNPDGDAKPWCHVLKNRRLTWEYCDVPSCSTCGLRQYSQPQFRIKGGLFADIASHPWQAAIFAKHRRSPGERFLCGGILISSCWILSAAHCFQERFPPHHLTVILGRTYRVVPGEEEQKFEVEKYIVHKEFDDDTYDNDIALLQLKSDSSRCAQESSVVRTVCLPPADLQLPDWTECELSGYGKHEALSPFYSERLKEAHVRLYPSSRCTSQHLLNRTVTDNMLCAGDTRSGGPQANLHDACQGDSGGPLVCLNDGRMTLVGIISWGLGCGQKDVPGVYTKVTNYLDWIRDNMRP
Protocol: (§3) Plasmin (Pls) activity was assayed as described^7. Peptides and proteins that were tested for their stimulatory ability were regularly used at 100 μg ml^−1. […] Chromogenic substrate S-2251 (Chromogenix, Instrumentation Laboratory SpA, Milano, Italy) was used to measure Pls activity. Conversion of zymogen factor XII (#233490, Calbiochem, EMD Biosciences, Inc., San Diego, Calif.) to proteolytically active factor XII (factor XIIa) was assayed by measurement of the conversion of chromogenic substrate Chromozym-PK (Roche Diagnostics, Almere, The Netherlands) by kallikrein. Chromozym-PK was used at a concentration of 0.3 mM. Factor XII, human plasma prekallikrein (#529583, Calbiochem) and human plasma cofactor high-molecular weight kininogen (#422686, Calbiochem) were used at concentrations of 1 μg ml^−1. […] Assays were performed using microtiter plates (Costar, Cambridge, Mass., USA). Peptides and proteins were tested for their ability to activate factor XII. 150 μg ml^−1 kaolin, an established activator of factor XII was used as positive control and solvent (H2O) as negative control. The conversion of Chromozym-PK was recorded kinetically at 37° C. for at least 60 minutes. Assays were done in duplicate. […] Alternatively, chromogenic substrate S-2222 (Chromogenix) was used to follow the activity of factor XII itself. With S-2222, activation of factor XII in plasma was measured, using 60% v/v plasma, diluted with substrate and H2O with or without potential cofactor. Furthermore, auto-activation of factor XII was measured by incubating 53 μg ml^−1 purified factor XII in 50 mM Tris-HCl buffer pH 7.5 with 1 mM EDTA and 0.001% v/v Triton-X100, with S-2222 and H2O with or without potential cofactor.
as §1
Purification of β2-glycoprotein I (β2GPI) was performed according to established methods^11,12. Recombinant human β2GPI was made using insect cells and purified as described^11. Plasma derived β2GPI as used in a factor XII ELISA, the chromogenic Plg-activation assay and in the anti-phospholipid syndrome antibody ELISA (see below), was purified from fresh human plasma as described^12.
To prepare structurally altered ovalbumin (OVA) with amyloid cross-β structure conformation, purified OVA (Sigma, A-7641, lot 071k7094) was heated to 85° C. One mg ml^−1 OVA in 67 mM NaPi buffer pH 7.0, 100 mM NaCl, was heated for two cycles in PCR cups in a PTC-200 thermal cycler (MJ Research, Inc., Waltham, Mass., USA). In each cycle, OVA was heated from 30 to 85° C. at a rate of 5° C./min. Native OVA (nOVA) and heat-denatured OVA (dOVA) were tested in the ThT fluorescence assay and in the Plg-activation assay. In the fluorescence assay and in the Plg-activation assay, 25 and 100 μg ml^−1 nOVA and dOVA were tested, respectively. TEM images of nOVA and dOVA were taken to check for the presence of large aggregates. […] MSA (#126674, Calbiochem) was dissolved in 8 M urea, 100 mM Tris-HCl pH 8.2, at 10 mg ml^−1 final concentration.

tPA [3] = target: T1, tPA; assay: tPA/plasminogen activation assay (400 pM tPA); type: biochemical; conditions: % of standardized positive control (denatured γ-globulins 100 μg/ml); 1:10 diluted samples
Protocol: β2-GPI was reduced and alkylated as follows. Six hundred forty μl of β2-GPI stock was mixed with 640 μl of 8 M Urea (cooled solution) in 0.1 M Tris pH=8.2. The solution was degassed with N2 gas for approximately 6 minutes. From a 1 M DTT stock 12.8 μl was added to the solution, mixed and incubated for 3 hours at room temperature. A 1 M Iodoacetamide (Sigma; 1-6125) was prepared, of which 25.6 μl was added to the β2-GPI reaction mixture. The solution was subsequently dialysed against PBS. […] Signals obtained with alkyl-62gpi are compared with those obtained with native β2gpi starting material.
Exiqon Peptide Immobilizer plates were blocked for 1 hour with PBS, 1% Tween20 and rinsed twice with distilled water. The conversion of the chromogenic substrate S-2251 (Chromogenix, Italy) by plasmin was kinetically measured at 37° C. on a Spectramax340 microplate reader at a wavelength of 405 nm. […] Denatured γ-globulins (100 μg/ml) with amyloid-like structure was used as reference and positive control. Lyophilized γ-globulins (Sigma, MO, USA) were dissolved in a 1(:)1 volume ratio of 1,1,1,3,3,3-hexafluoro-2-propanol and trifluoro-acetic acid and subsequently dried under air. Dried γ-globulins was dissolved in H2O to a final concentration of 1 mg/ml and kept at room temperature for at least three days and subsequently stored at −20° C.
as §2

[4] = Stability testing of biopharmaceuticals under denaturing conditions (ThT fluorescence, tPA activation); type: physicochemical; conditions: ThT at 25 μg/mL, tPA activation at 100 μg/mL
Protocol: To mimic accelerated stability testing several therapeutics were exposed to denaturing conditions and assayed for amyloid-like properties before and after treatment by tPA activation assay at 100 μg/mL protein and ThT fluorescence enhancement assay at 25 μg/mL protein. For this purpose, 5 mg/mL Glucagon (Glucagen; Novo Nordisk Farma B.V., Alphen aan de Rijn, The Netherlands) was incubated at 37° C. in 0.01 M HCl for 48 hours. One mg/mL Etanercept (Enbrel; Wyeth Pharmaceuticals B.V., Hoofddorp, The Netherlands) in 67 mM sodium phosphate buffer, 100 mM NaCl pH 7.0 was gradually heated from 30° C. to 85° C. over a period of 12 minutes and afterwards cooled to 4° C. for 5 minutes, this treatment was repeated 4 times. Abciximab (Reopro; Centocor B.V., Leiden, The Netherlands) and Infliximab (Remicade; Schering-Plough B.V., Utrecht, The Netherlands) were incubated at 65° C. for 16 and 72 hours, respectively.

Congo red fluorescence = type: physicochemical; conditions: for Fluorescence (a.u. +/− SD) CR: marketed biopharmaceutical within expiry limits, five μL tested; for enhancement of Congo red fluorescence: therapeutics stored at 4° C.
Protocol: Background signals from buffer, buffer with Congo red and protein/peptide solution without Congo red were subtracted from corresponding measurements with protein solution incubated with Congo red. Fluorescence was measured in triplicate on a Hitachi F-4500 fluorescence spectrophotometer (Ltd., Tokyo, Japan).
as §1, §2

tPA [5] = target: T1, tPA; assay: tPA binding assay with immobilized biopharmaceuticals in an ELISA; conditions: therapeutic coated 1:10; one-site binding fit
Protocol: Nunc Immobilizer plates (Nalge Nunc, #436013, Rochester, N.Y., USA) were coated with 50 μL containing 5 μg/mL of sample protein (unless indicated otherwise) in 100 mM NaHCO3, pH 9.6, 0.05% m/v NaN3 for 1 hour at room temperature. Plates were washed twice with Tris buffered saline pH 7.2 containing 0.1% Tween20 (TBST) and blocked with PBS containing 1% Tween20 for 1 hour at room temperature. […] Plates were washed five times with TBST and incubated with peroxidase labeled anti-mouse immunoglobulins (RAMPO; DAKOCytomation, Glostrup, Denmark) diluted 1:3000 in PBST for 30 minutes at room temperature. Plates were washed five times with PBS 0.1% Tween20, and stained with 100 μL/well of tetramethyl-benzidine (TMB) substrate (Biosource Europe, Nivelles, Belgium). The reaction was terminated with 50 μL/well of 2 M H2SO4 and substrate conversion was read at 450 nm on a Spectramax340 microplate reader. Curves were fitted with a one-site binding model (GraphPad Prism version 4.02 for Windows, Graphpad Software, CA, USA) from which Kd and Bmax were determined.
as §2

tPA [6] = target: T1, tPA; assay: tPA ELISA with coated protein therapeutics; type: binding; conditions: 5 μg ml^−1 coated, stored at 4° C.
Protocol: as §1

factor XII = target: T2, factor XII (Homo sapiens, UniProt P00748); assay: Chromogenic factor XII/prekallikrein activation assay (Chromozym-PK); type: biochemical
T2 construct: purchased Calbiochem, EMD Biosciences #233490
T2 sequence (P00748 20-615): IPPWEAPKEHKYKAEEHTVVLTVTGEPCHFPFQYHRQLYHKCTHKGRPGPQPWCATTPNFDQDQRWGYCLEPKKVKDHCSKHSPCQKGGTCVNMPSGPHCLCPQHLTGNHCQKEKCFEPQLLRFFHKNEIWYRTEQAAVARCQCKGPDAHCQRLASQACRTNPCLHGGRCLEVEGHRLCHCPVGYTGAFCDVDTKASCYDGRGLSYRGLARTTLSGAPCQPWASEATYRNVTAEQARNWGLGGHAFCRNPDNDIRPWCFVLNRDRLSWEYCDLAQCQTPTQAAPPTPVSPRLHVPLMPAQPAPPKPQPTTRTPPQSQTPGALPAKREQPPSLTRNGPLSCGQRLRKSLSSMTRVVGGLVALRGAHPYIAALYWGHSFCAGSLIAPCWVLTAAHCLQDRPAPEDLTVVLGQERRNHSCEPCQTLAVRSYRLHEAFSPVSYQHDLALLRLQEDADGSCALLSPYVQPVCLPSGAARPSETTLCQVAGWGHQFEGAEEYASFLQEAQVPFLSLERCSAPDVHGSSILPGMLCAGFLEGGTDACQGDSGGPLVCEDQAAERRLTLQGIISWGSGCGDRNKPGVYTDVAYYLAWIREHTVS
Protocol: as §3, §1

tPA activating potential of native and denatured glucagon and Etanercept (tPA [2]) | tPA activation Max. Activation (%) (tPA [3]) | tPA activation by protein therapeutics (tPA [2]; stored at 4° C., GH 500 μg ml^−1, zinc-insulin diluted tenfold) | tPA Binding Bmax (OD450 nm) (tPA [5]) | binding of tPA to immobilized therapeutic (tPA [6]) | factor XII activation by gelatin (factor XII; kept at 37° C.) | factor XII/prekallikrein activation by protein therapeutics (factor XII; stored at 4° C.) | Substance | ThT fluorescence enhancement of native and denatured proteins ([1]; 25 μg ml^−1) | Fluorescence (a.u. +/− SD) ThT [1] | amyloid-like properties after exposure to harsh denaturing conditions (low pH, heat) [4] | Fluorescence (a.u. +/− SD) CR (Congo red fluorescence) | enhancement of Congo red fluorescence (Congo red fluorescence) | enhancement of ThT fluorescence ([1]; therapeutics stored at 4° C.) | Congo red fluorescence of gelatin (Congo red fluorescence; stored at 4° C. and 37° C.)
induces some tPA activation | 0% |  |  |  |  |  | Etanercept | gave some ThT fluorescence enhancement | 23 +/− 3 a.u. | amyloid-like properties are adopted |  |  |  | 
has some tPA activating potential | 11.25% |  |  |  |  |  | Glucagon: human glucagon (Glucagen, Novo Nordisk) |  | 48 +/− 1 a.u. | amyloid-like properties are adopted |  |  |  | 
 | 0% |  |  |  |  |  | Infliximab: human-murine chimeric monoclonal antibody (Remicade-infliximab) |  | 19 +/− 1 a.u. | amyloid-like properties are adopted | 67 +/− 2 a.u. |  |  | 
 |  | induced tPA activation | 0.9369 OD450 nm | binding of tPA was established |  |  | Somatropin: human growth hormone (GH) (Genotropin, Pharmacia) |  | 1317 +/− 10 a.u. |  | 429 +/− 2 a.u. | to some extent | enhance fluorescence of ThT | 
 |  |  |  | binding of tPA was established | activated factor XII | not | gelatin |  |  |  |  | enhanced the fluorescence of Congo red |  | enhanced Congo red fluorescence in a storage temperature dependent manner

From patent US20080207488A1, “Method for Detecting Peptides Comprising a Cross-B Structure” (priority 2005, published 2008)
